B1: Flag-CNK^2–549 [Drosophila] / GST-HYP [Drosophila] (parent complex)
chain 1: AYINIAEWTPDQVTDWIKGLDESMKGYLYEFSKQEIGGRALLNIRPYELENLGMLRIGHQEIVLEAVENLRNFHYHLKNDNLQFMALHVATAAKNLHRELARNHAESTKIDTRILHDITRTIATLKPLVGSLERTPFRKQEMYREYCGNVLKCGLELATIAHRDRFALQPVPAIRQSAERLENLANFVIQDISDPMVLQPASLNLVTLKKRESELGFNIESSYNGIHRVTDIKYNSPAHNSGKIEDGDEIVQINYQTVVGWQHRTVLEHLREALPDVVLTVKKRPKHTKMFGQIYMQPYRLPSKKRNMAARWAAQMPSPRAAFLTLDTEQLATGGTGSAVPDPSKSLSSEKREVLTKANPVSSASDSDSSCSDIPTPTDPKLAAREIRLYYPKPRALLQRRNTICGCEYLSLKNSDLVVPSWHERKPGIGSPTNCDPGSPSIRDKSISFGYGLEMAARPTTCIGIAGDTSTDKARRMFHEARKLKQLTEDSQREFLVDRYKPGVSKVVRFDAKEDYVMKNEKFICNVENTILETFEPIPFADEGDEDA
chain 2: MGEETINSTQNKTRTKTTRPKAVYLWTVSDVLKWYRRHCGEYTQYEQLFAQHDITGRALLRITDSSLQRMGVTDNRDREAIWREIVKQRLKTDIMEIRDMERLNIY

The variants in one test derive from B1. The test is described as follows: GST pull-down, immunoblot quantification; S2 cells; GST-HYP + RRKM co-expressed; anti-Flag (CNK) blot; parent: 1.
As to chain 1 AYINIAEWTPDQVTDWIKGLDESMKGYLYEFSKQEIGGRALLNIRPYELENLGMLRIGHQEIVLEFVENLRNRHYHLKNDNLQFMALHVATAAKNLHRELARNHAESTKIDTRILHDITRTIATLKPLVGSLERTPFRKQEMYREYCGNVLKCGLELATIAHRDRFALQPVPAIRQSAERLENLANFVIQDISDPMVLQPASLNLVTLKKRESELGFNIESSYNGIHRVTDIKYNSPAHNSGKIEDGDEIVQINYQTVVGWQHRTVLEHLREALPDVVLTVKKRPKHTKMFGQIYMQPYRLPSKKRNMAARWAAQMPSPRAAFLTLDTEQLATGGTGSAVPDPSKSLSSEKREVLTKANPVSSASDSDSSCSDIPTPTDPKLAAREIRLYYPKPRALLQRRNTICGCEYLSLKNSDLVVPSWHERKPGIGSPTNCDPGSPSIRDKSISFGYGLEMAARPTTCIGIAGDTSTDKARRMFHEARKLKQLTEDSQREFLVDRYKPGVSKVVRFDAKEDYVMKNEKFICNVENTILETFEPIPFADEGDEDA [chain 1 A66F, chain 1 F73R], the ratio to parent was determined as 0.58.

In the case of chain 1 AYINIAEWTPDQVTDWIKGLDESMKGYLYEFSKQEIGGRALLNIRPYELENLGMLRIGHQEIVLEAVENLRNFHYHLKNDNLQFMALHVATAAKNLHRELARNHAESTKIDTRILHDITRTIATLKPLVGSLERTPFRKQEMYREYCGNVLKCGLELATIAHRDRFALQPVPAIRQSAERLENLANFVIQDISDPMVLQPASLNLVTLKKRESELGFNIESSYNGIHRVTDIKYNSPAHNSGKIEDGDRIRQINYQTVVGWQHRTVLEHLREALPDVVLTVKKRPKHTKMFGQIYMQPYRLPSKKRNMAARWAAQMPSPRAAFLTLDTEQLATGGTGSAVPDPSKSLSSEKREVLTKANPVSSASDSDSSCSDIPTPTDPKLAAREIRLYYPKPRALLQRRNTICGCEYLSLKNSDLVVPSWHERKPGIGSPTNCDPGSPSIRDKSISFGYGLEMAARPTTCIGIAGDTSTDKARRMFHEARKLKQLTEDSQREFLVDRYKPGVSKVVRFDAKEDYVMKNEKFICNVENTILETFEPIPFADEGDEDA [chain 1 E249R, chain 1 V251R], the ratio to parent worked out at 0.08.

A further test covers variants of B1. Kind of test: GST pull-down, immunoblot quantification; S2 cells; only Flag-CNK2–549 and GST-HYP co-expressed; anti-Flag blot; parent: 1.
With chain 1 AYINIAEWTPDQVTDWIKGLDESMKGYLYEFSKQEIGGRALLNIRPYELENLGMLRIGHQEIVLEFVENLRNRHYHLKNDNLQFMALHVATAAKNLHRELARNHAESTKIDTRILHDITRTIATLKPLVGSLERTPFRKQEMYREYCGNVLKCGLELATIAHRDRFALQPVPAIRQSAERLENLANFVIQDISDPMVLQPASLNLVTLKKRESELGFNIESSYNGIHRVTDIKYNSPAHNSGKIEDGDEIVQINYQTVVGWQHRTVLEHLREALPDVVLTVKKRPKHTKMFGQIYMQPYRLPSKKRNMAARWAAQMPSPRAAFLTLDTEQLATGGTGSAVPDPSKSLSSEKREVLTKANPVSSASDSDSSCSDIPTPTDPKLAAREIRLYYPKPRALLQRRNTICGCEYLSLKNSDLVVPSWHERKPGIGSPTNCDPGSPSIRDKSISFGYGLEMAARPTTCIGIAGDTSTDKARRMFHEARKLKQLTEDSQREFLVDRYKPGVSKVVRFDAKEDYVMKNEKFICNVENTILETFEPIPFADEGDEDA [chain 1 A66F, chain 1 F73R], the ratio to parent was 0.12.

For the variant chain 1 AYINIAEWTPDQVTDWIKGLDESMKGYLYEFSKQEIGGRALLNIRPYELENLGMLRIGHQEIVLEAVENLRNFHYHLKNDNLQFMALHVATAAKNLHRELARNHAESTKIDTRILHDITRTIATLKPLVGSLERTPFRKQEMYREYCGNVLKCGLELATIAHRDRFALQPVPAIRQSAERLENLANFVIQDISDPMVLQPASLNLVTLKKRESELGFNIESSYNGIHRVTDIKYNSPAHNSGKIEDGDRIRQINYQTVVGWQHRTVLEHLREALPDVVLTVKKRPKHTKMFGQIYMQPYRLPSKKRNMAARWAAQMPSPRAAFLTLDTEQLATGGTGSAVPDPSKSLSSEKREVLTKANPVSSASDSDSSCSDIPTPTDPKLAAREIRLYYPKPRALLQRRNTICGCEYLSLKNSDLVVPSWHERKPGIGSPTNCDPGSPSIRDKSISFGYGLEMAARPTTCIGIAGDTSTDKARRMFHEARKLKQLTEDSQREFLVDRYKPGVSKVVRFDAKEDYVMKNEKFICNVENTILETFEPIPFADEGDEDA [chain 1 E249R, chain 1 V251R], the ratio to parent came to 0.05.

In the next test the parent is B1. The test is described as follows: GST pull-down, immunoblot quantification; S2 cells; GST-HYP + RRKM co-expressed; anti-Flag (CNK) blot; parent: 1. The source holds these as a separate data set.
chain 1 AYINIAEWTPDQVTDWIKGLDESMKGYLYEFSKQEIGGRALLNIRPYELENLGMLRIGHQEIVLEAVENLRNFHYHLKNDNLQFMALHVATAAKNLHRELARNHAESTKIDTRILHDITRTIATLKPLVGSLERTPFRKQEMYREYCGNVLKCGLELATIAHRDRFALQPVPAIRQSAERLENLANFVIQDISDPMVLQPASLNLVTLKKRESELGFNIESSYNGIHRVTDIKYNSPAHNSGKIEDGDEIVQINYQTVVGWQHRTVLEHLREALPDVVLTVDKRPKHTKMFGQIYMQPYRLPSKKRNMAARWAAQMPSPRAAFLTLDTEQLATGGTGSAVPDPSKSLSSEKREVLTKANPVSSASDSDSSCSDIPTPTDPKLAAREIRLYYPKPRALLQRRNTICGCEYLSLKNSDLVVPSWHERKPGIGSPTNCDPGSPSIRDKSISFGYGLEMAARPTTCIGIAGDTSTDKARRMFHEARKLKQLTEDSQREFLVDRYKPGVSKVVRFDAKEDYVMKNEKFICNVENTILETFEPIPFADEGDEDA [chain 1 K282D]: the ratio to parent is 0.31.

Variants of B1 are the subject of the next test. The test is described as follows: GST pull-down, immunoblot quantification; S2 cells; only Flag-CNK2–549 and GST-HYP co-expressed; anti-Flag blot; parent: 1. The source holds these as a separate data set.
Consider chain 1 AYINIAEWTPDQVTDWIKGLDESMKGYLYEFSKQEIGGRALLNIRPYELENLGMLRIGHQEIVLEAVENLRNFHYHLKNDNLQFMALHVATAAKNLHRELARNHAESTKIDTRILHDITRTIATLKPLVGSLERTPFRKQEMYREYCGNVLKCGLELATIAHRDRFALQPVPAIRQSAERLENLANFVIQDISDPMVLQPASLNLVTLKKRESELGFNIESSYNGIHRVTDIKYNSPAHNSGKIEDGDEIVQINYQTVVGWQHRTVLEHLREALPDVVLTVDKRPKHTKMFGQIYMQPYRLPSKKRNMAARWAAQMPSPRAAFLTLDTEQLATGGTGSAVPDPSKSLSSEKREVLTKANPVSSASDSDSSCSDIPTPTDPKLAAREIRLYYPKPRALLQRRNTICGCEYLSLKNSDLVVPSWHERKPGIGSPTNCDPGSPSIRDKSISFGYGLEMAARPTTCIGIAGDTSTDKARRMFHEARKLKQLTEDSQREFLVDRYKPGVSKVVRFDAKEDYVMKNEKFICNVENTILETFEPIPFADEGDEDA [chain 1 K282D], for which the ratio to parent was 0.4.

These data come from paper PMC11257983 (2024).
